Positions count from the first letter of the chain named. Names and notes keep the numbering of the source. Blank lines part the entries; values can stand above or below the binder they belong to.
Legend:
[1] = limited trypsin digestion of plasma membranes ± α-factor, western blot; conditions: glycan lost; control: epitope-tagged receptors with intact sites
[2] = target: T1, Ste2-F204S (S. cerevisiae) (UniProt D6VTK4)
T1 sequence: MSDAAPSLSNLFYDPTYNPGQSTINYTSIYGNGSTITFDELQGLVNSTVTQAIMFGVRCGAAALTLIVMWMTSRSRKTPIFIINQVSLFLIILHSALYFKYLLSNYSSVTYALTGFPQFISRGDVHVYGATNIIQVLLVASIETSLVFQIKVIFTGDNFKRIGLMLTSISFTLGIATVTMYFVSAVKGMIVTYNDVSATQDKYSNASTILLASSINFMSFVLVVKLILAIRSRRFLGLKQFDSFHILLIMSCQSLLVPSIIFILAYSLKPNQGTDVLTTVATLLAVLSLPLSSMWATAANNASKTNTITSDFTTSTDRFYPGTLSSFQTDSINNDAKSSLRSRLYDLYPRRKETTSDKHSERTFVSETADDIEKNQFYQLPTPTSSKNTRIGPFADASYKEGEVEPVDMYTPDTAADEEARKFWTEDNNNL

B1: α-factor receptor (Ste2): T7-Ste2-N25Q,N32Q (protein)
parent chain: T1 sequence with S204F
- structure_or_conformation [1]: no change

- endocytosis complementation assay: percent of co-expressing cells with one or more GFP fluorescent foci after α-factor treatment (fluorescence microscopy) [2]: > 80%
B2: Ste2-T326-GFP (receptor)
chain: MSDAAPSLSNLFYDPTYNPGQSTINYTSIYGNGSTITFDELQGLVNSTVTQAIMFGVRCGAAALTLIVMWMTSRSRKTPIFIINQVSLFLIILHSALYFKYLLSNYSSVTYALTGFPQFISRGDVHVYGATNIIQVLLVASIETSLVFQIKVIFTGDNFKRIGLMLTSISFTLGIATVTMYFVSAVKGMIVTYNDVSATQDKYFNASTILLASSINFMSFVLVVKLILAIRSRRFLGLKQFDSFHILLIMSCQSLLVPSIIFILAYSLKPNQGTDVLTTVATLLAVLSLPLSSMWATAANNASKTNTITSDFTTSTDRFYPGTLSS
